# Data as given in US20230158141A1 (YAFEI SHANGHAI BIOLOG MEDICINE SCIENCE AND TECHNOLOGY, published 2023).
# Numbering of substitutions follows the chain as printed.
# T1: IL-10R1-Fc (UniProt Q13651 22-235, limits assumed)
# T1 sequence (looked up): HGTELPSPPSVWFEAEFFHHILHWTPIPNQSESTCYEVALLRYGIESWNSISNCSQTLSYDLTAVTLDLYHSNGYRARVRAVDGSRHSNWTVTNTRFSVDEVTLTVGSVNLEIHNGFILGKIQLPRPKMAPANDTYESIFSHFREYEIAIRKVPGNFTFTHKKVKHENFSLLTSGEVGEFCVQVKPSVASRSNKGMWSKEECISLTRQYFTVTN
# B1: IL-10 Glu142Cys-S48 (ligand, human, UniProt P22301 19-178, looked up)
# chain: SPGQGTQSENSCTHFPGNLPNMLRDLRDAFSRVKTFFQMKDQLDNLLLKESLLEDFKGYLGCQALSEMIQFYLEEVMPQAENQDPDIKAHVNSLGENLKTLRLRLRRCHRFLPCENKSKAVEQVKNAFNKLQEKGIYKAMSCFDIFINYIEAYMTMKIRN
# modifications: S48 on Cys 142
# notes: mature
# B2: IL-10 Leu53Cys-S48 (ligand, human, UniProt P22301 19-178, looked up)
# chain: B1 chain with L53C, C142E
# modifications: S48 on Cys 53
# notes: mature
# B3: IL-10 Phe143Cys-R4-8 (ligand, human, UniProt P22301 19-178, looked up)
# chain: B1 chain with C142E, F143C
# modifications: R4-8 on Cys 143
# notes: mature
# B4: IL-10 Leu131Cys-S48 (ligand, human, UniProt P22301 19-178, looked up)
# chain: B1 chain with L131C, C142E
# modifications: S48 on Cys 131
# notes: mature
# B5: IL-10 Phe30Cys-S48 (ligand, human, UniProt P22301 19-178, looked up)
# chain: B1 chain with F30C, C142E
# modifications: S48 on Cys 30
# notes: mature
# B6: IL-10 Leu65Cys-R4-6 (ligand, human, UniProt P22301 19-178, looked up)
# chain: B1 chain with L65C, C142E
# modifications: R4-6 on Cys 65
# notes: mature
# B7: IL-10 Ile69Cys-R4-6 (ligand, human, UniProt P22301 19-178, looked up)
# chain: B1 chain with I69C, C142E
# modifications: R4-6 on Cys 69
# notes: mature
# B8: IL-10 Phe30Cys-R4-8 (ligand, human, UniProt P22301 19-178, looked up)
# chain: B1 chain with F30C, C142E
# modifications: R4-8 on Cys 30
# notes: mature
# B9: IL-10 Leu65Cys-S48 (ligand, human, UniProt P22301 19-178, looked up)
# chain: B1 chain with L65C, C142E
# modifications: S48 on Cys 65
# notes: mature
# B10: IL-10 Leu53Cys-R4-6 (ligand, human, UniProt P22301 19-178, looked up)
# chain: B1 chain with L53C, C142E
# modifications: R4-6 on Cys 53
# notes: mature
# B11: IL-10 Met39Cys-R4-1 (ligand, human, UniProt P22301 19-178, looked up)
# chain: B1 chain with M39C, C142E
# modifications: R4-1 on Cys 39
# notes: mature
# B12: IL-10 Lys134Cys-R4-7 (ligand, human, UniProt P22301 19-178, looked up)
# chain: B1 chain with K134C, C142E
# modifications: R4-7 on Cys 134
# notes: mature
# B13: IL-10 Leu105Cys-R4-6 (ligand, human, UniProt P22301 19-178, looked up)
# chain: B1 chain with L105C, C142E
# modifications: R4-6 on Cys 105
# notes: mature
# B14: IL-10 Leu19Cys-S48 (ligand, human, UniProt P22301 19-178, looked up)
# chain: B1 chain with L19C, C142E
# modifications: S48 on Cys 19
# notes: mature
# B15: IL-10 Lys157Cys-S48 (ligand, human, UniProt P22301 19-178, looked up)
# chain: B1 chain with C142E, K157C
# modifications: S48 on Cys 157
# notes: mature
# B16: IL-10 Met140Cys-S48 (ligand, human, UniProt P22301 19-178, looked up)
# chain: B1 chain with M140C, C142E
# modifications: S48 on Cys 140
# notes: mature
# B17: IL-10 Gly135Cys-R4-1 (ligand, human, UniProt P22301 19-178, looked up)
# chain: B1 chain with G135C, C142E
# modifications: R4-1 on Cys 135
# notes: mature
# B18: IL-10 Ile69Cys-S48 (ligand, human, UniProt P22301 19-178, looked up)
# chain: B1 chain with I69C, C142E
# modifications: S48 on Cys 69
# notes: mature
# B19: IL-10 Leu46Cys-R4-6 (ligand, human, UniProt P22301 19-178, looked up)
# chain: B1 chain with L46C, C142E
# modifications: R4-6 on Cys 46
# notes: mature
# B20: IL-10 Lys117Cys-R4-7 (ligand, human, UniProt P22301 19-178, looked up)
# chain: B1 chain with K117C, C142E
# modifications: R4-7 on Cys 117
# notes: mature
# B21: IL-10 Phe111Cys-R4-8 (ligand, human, UniProt P22301 19-178, looked up)
# chain: B1 chain with F111C, C142E
# modifications: R4-8 on Cys 111
# notes: mature
# B22: IL-10 Phe143Cys-S48 (ligand, human, UniProt P22301 19-178, looked up)
# chain: B1 chain with C142E, F143C
# modifications: S48 on Cys 143
# notes: mature
# B23: IL-10 Met140Cys-R4-1 (ligand, human, UniProt P22301 19-178, looked up)
# chain: B1 chain with M140C, C142E
# modifications: R4-1 on Cys 140
# notes: mature
# B24: IL-10 Lys49Cys-S48 (ligand, human, UniProt P22301 19-178, looked up)
# chain: B1 chain with K49C, C142E
# modifications: S48 on Cys 49
# notes: mature
# B25: IL-10 Leu94Cys-S48 (ligand, human, UniProt P22301 19-178, looked up)
# chain: B1 chain with L94C, C142E
# modifications: S48 on Cys 94
# notes: mature
# B26: IL-10 Leu23Cys-S48 (ligand, human, UniProt P22301 19-178, looked up)
# chain: B1 chain with L23C, C142E
# modifications: S48 on Cys 23
# notes: mature
# B27: IL-10 Lys49Cys-R4-5 (ligand, human, UniProt P22301 19-178, looked up)
# chain: B1 chain with K49C, C142E
# modifications: R4-5 on Cys 49
# notes: mature
# B28: IL-10 Gly135Cys-S48 (ligand, human, UniProt P22301 19-178, looked up)
# chain: B1 chain with G135C, C142E
# modifications: S48 on Cys 135
# notes: mature
# B29: IL-10 Lys134Cys-S48 (ligand, human, UniProt P22301 19-178, looked up)
# chain: B1 chain with K134C, C142E
# modifications: S48 on Cys 134
# notes: mature
# B30: IL-10 Leu94Cys-R4-6 (ligand, human, UniProt P22301 19-178, looked up)
# chain: B1 chain with L94C, C142E
# modifications: R4-6 on Cys 94
# notes: mature
# B31: IL-10 Leu48Cys-S48 (ligand, human, UniProt P22301 19-178, looked up)
# chain: B1 chain with L48C, C142E
# modifications: S48 on Cys 48
# notes: mature
# B32: IL-10 Glu151Cys-R4-12 (ligand, human, UniProt P22301 19-178, looked up)
# chain: B1 chain with C142E, E151C
# modifications: R4-12 on Cys 151
# notes: mature
# B33: IL-10 Leu23Cys-R4-6 (ligand, human, UniProt P22301 19-178, looked up)
# chain: B1 chain with L23C, C142E
# modifications: R4-6 on Cys 23
# notes: mature
# B34: IL-10 Leu19Cys-R4-7 (ligand, human, UniProt P22301 19-178, looked up)
# chain: B1 chain with L19C, C142E
# modifications: R4-7 on Cys 19
# notes: mature
# B35: IL-10 Leu26Cys-R4-6 (ligand, human, UniProt P22301 19-178, looked up)
# chain: B1 chain with L26C, C142E
# modifications: R4-6 on Cys 26
# notes: mature
# B36: IL-10 Ile158Cys-R4-6 (ligand, human, UniProt P22301 19-178, looked up)
# chain: B1 chain with C142E, I158C
# modifications: R4-6 on Cys 158
# notes: mature
# B37: IL-10 Leu26Cys-S48 (ligand, human, UniProt P22301 19-178, looked up)
# chain: B1 chain with L26C, C142E
# modifications: S48 on Cys 26
# notes: mature
# B38: IL-10 Ile158Cys-S48 (ligand, human, UniProt P22301 19-178, looked up)
# chain: B1 chain with C142E, I158C
# modifications: S48 on Cys 158
# notes: mature
# B39: IL-10 Lys138Cys-R4-7 (ligand, human, UniProt P22301 19-178, looked up)
# chain: B1 chain with K138C, C142E
# modifications: R4-7 on Cys 138
# notes: mature
# B40: IL-10 Phe111Cys-S48 (ligand, human, UniProt P22301 19-178, looked up)
# chain: B1 chain with F111C, C142E
# modifications: S48 on Cys 111
# notes: mature
# B41: IL-10 Gly17Cys-R4-1 (ligand, human, UniProt P22301 19-178, looked up)
# chain: B1 chain with G17C, C142E
# modifications: R4-1 on Cys 17
# notes: mature
# B42: IL-10 Met39Cys-S48 (ligand, human, UniProt P22301 19-178, looked up)
# chain: B1 chain with M39C, C142E
# modifications: S48 on Cys 39
# notes: mature
# B43: IL-10 Leu46Cys-S48 (ligand, human, UniProt P22301 19-178, looked up)
# chain: B1 chain with L46C, C142E
# modifications: S48 on Cys 46
# notes: mature
# B44: IL-10 Leu48Cys-R4-7 (ligand, human, UniProt P22301 19-178, looked up)
# chain: B1 chain with L48C, C142E
# modifications: R4-7 on Cys 48
# notes: mature
# B45: IL-10 Leu131Cys-R4-6 (ligand, human, UniProt P22301 19-178, looked up)
# chain: B1 chain with L131C, C142E
# modifications: R4-6 on Cys 131
# notes: mature
# B46: IL-10 Gly17Cys-S48 (ligand, human, UniProt P22301 19-178, looked up)
# chain: B1 chain with G17C, C142E
# modifications: S48 on Cys 17
# notes: mature
# B47: IL-10 Lys157Cys-R4-7 (ligand, human, UniProt P22301 19-178, looked up)
# chain: B1 chain with C142E, K157C
# modifications: R4-7 on Cys 157
# notes: mature
# B48: IL-10 Lys117Cys-S48 (ligand, human, UniProt P22301 19-178, looked up)
# chain: B1 chain with K117C, C142E
# modifications: S48 on Cys 117
# notes: mature
# B49: IL-10 Leu105Cys-S48 (ligand, human, UniProt P22301 19-178, looked up)
# chain: B1 chain with L105C, C142E
# modifications: S48 on Cys 105
# notes: mature
# B50: IL-10 Lys138Cys-S48 (ligand, human, UniProt P22301 19-178, looked up)
# chain: B1 chain with K138C, C142E
# modifications: S48 on Cys 138
# notes: mature
# B51: IL-10 Glu151Cys-S48 (ligand, human, UniProt P22301 19-178, looked up)
# chain: B1 chain with C142E, E151C
# modifications: S48 on Cys 151
# notes: mature
# Biological target: T1, IL-10R1-Fc
# Assay: ELISA, IL-10R1-Fc coated
Binder,Decreased fold of binding to ligand after Conjugating with S48,Binding recovery (>60%)
B1,13 fold,
B2,3 fold,
B3,,69%
B4,5 fold,
B5,6 fold,
B6,,92.3%
B7,,97.3%
B8,,97.1%
B9,3 fold,
B10,,99.4%
B11,,88%
B12,,128%
B13,,92.3%
B14,8 fold,
B15,3 fold,
B16,3 fold,
B17,,99.5%
B18,3 fold,
B19,,89.6%
B20,,117%
B21,,90.1%
B22,7 fold,
B23,,89%
B24,7 fold,
B25,5 fold,
B26,12 fold,

Binder,Decreased fold of binding to ligand after Conjugating with S48,Binding recovery (>60%)
B27,,114%
B28,3 fold,
B29,5 fold,
B30,,88.4%
B31,3 fold,
B32,,82.5%
B33,,101%
B34,,95.3%
B35,,93.4%
B36,,81.7%
B37,3 fold,
B38,9 fold,
B39,,97.6%
B40,12 fold,
B41,,90.2%
B42,62 fold,
B43,22 fold,
B44,,98.9%
B45,,98.5%
B46,15 fold,
B47,,98.6%
B48,3 fold,
B49,5 fold,
B50,23 fold,
B51,13 fold,
